Source: patent US20260184782A1 (TWIST BIOSCIENCE, published 2026)

T1: recombinant human TIGIT (human, UniProt Q495A1 22-141, limits assumed)
T1 construct: recombinant human TIGIT used in Carterra SPR; also called hTIGIT
T1 sequence (looked up): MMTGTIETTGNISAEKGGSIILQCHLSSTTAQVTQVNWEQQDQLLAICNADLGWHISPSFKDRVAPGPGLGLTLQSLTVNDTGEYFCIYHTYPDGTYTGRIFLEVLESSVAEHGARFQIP


Target: T1, recombinant human TIGIT
Assay: SPR Carterra, average
Description: Binding affinities of VHH-Fc proteins to recombinant human TIGIT were measured by SPR using a Carterra instrument (Table 10A). […] Average values reported from measurements from 1-2 samples.

Kd | koff | kon | Binder
≤ 0.0423 nM | ≤ 1e-05 s⁻¹ | 342000 M⁻¹ s⁻¹ | TIGIT-SC39 (Fc fusion, VHH-Fc fusion in assay) VHH: EVQLVESGGGLVQPGGSLRLSCAASGRTVSSHAMGWFRQAPGKEREFVAAITSSGSTYYADSVKGRFTISADNSKNTAYLQMNSLKPEDTAVYYCASSYSSSSGLGDIWGQGTLVTVSS
0.467 nM | 0.000165 s⁻¹ | 246000 M⁻¹ s⁻¹ | TIGIT-SC1 (Fc fusion, VHH-Fc fusion in assay) VHH: EVQLVESGGGLVQPGGSLRLSCAASGFTLNDYAMGWFRQAPGKERELVAWIARYDGSTLYADSVKGRFTISADNSKNTAYLQMNSLKPEDTAVYYCARVDWALNAAPFDYWGQGTLVTVSS
2.02 nM | 0.000493 s⁻¹ | 244000 M⁻¹ s⁻¹ | TIGIT-SC78 (Fc fusion, VHH-Fc fusion in assay) VHH: EVQLVESGGGLVQPGGSLRLSCAASGLTLNDYAMGWFRQAPGKERELVAWIARYDGSTLYADSVKGRFTISADNSKNTAYLQMNSLKPEDTAVYYCARVDWALNAAPFDYWGQGTLVTVSS
≤ 0.0118 nM | ≤ 1e-05 s⁻¹ | 860000 M⁻¹ s⁻¹ | TIGIT-SC58 (Fc fusion, VHH-Fc fusion in assay) VHH: EVQLVESGGGLVQPGGSLRLSCAASGFTLGYYVMGWFRQAPGKEREFVATINWSGTLTSYADSVKGRFTISADNSKNTAYLQMNSLKPEDTAVYYCARWVGPKYYFDYWGQGTLVTVSS
≤ 0.156 nM | ≤ 1e-05 s⁻¹ | 64300 M⁻¹ s⁻¹ | TIGIT-SC63 (Fc fusion, VHH-Fc fusion in assay) VHH: EVQLVESGGGLVQPGGSLRLSCAASGRAIGSYGMGWFRQAPGKEREFVATISVSGVYTYYADSVKGRFTISADNSKNTAYLQMNSLKPEDTAVYYCARATPGGVVPWGQGTLVTVSS
0.693 nM | 0.000148 s⁻¹ | 213000 M⁻¹ s⁻¹ | TIGIT-SC107 (Fc fusion, VHH-Fc fusion in assay) VHH: EVQLVESGGGLVQPGGSLRLSCAASGFAFSSDWMGWFRQAPGKEREGVAWIARYDGSTLYADSVKGRFTISADNSKNTAYLQMNSLKPEDTAVYYCAKDLDSSGRFFQHWGQGTLVTVSS
0.447 nM | 0.000231 s⁻¹ | 942000 M⁻¹ s⁻¹ | TIGIT-SC97 (Fc fusion, VHH-Fc fusion in assay) VHH: EVQLVESGGGLVQPGGSLRLSCAASGTAASFNPMGWFRQAPGKEREFVAAISWSGGSTNYADSVKGRFTISADNSKNTAYLQMNSLKPEDTAVYYCVTYSAYDFRNAWGQGTLVTVSS
2.55 nM | 0.00352 s⁻¹ | 1.38e+06 M⁻¹ s⁻¹ | TIGIT-SC95 (Fc fusion, VHH-Fc fusion in assay) VHH: EVQLVESGGGLVQPGGSLRLSCAASGPTFSTNVMGWFRQAPGKEREFVSSIHWGGSSTVYADSVKGRFTISADNSKNTAYLQMNSLKPEDTAVYYCVTYSAYDFRNAWGQGTLVTVSS
≤ 0.00513 nM | ≤ 1e-05 s⁻¹ | 1.95e+06 M⁻¹ s⁻¹ | TIGIT-SC14 (Fc fusion, VHH-Fc fusion in assay) VHH: EVQLVESGGGLVQPGGSLRLSCAASGSISSIHAMGWFRQAPGKEREFVATISRSGVGTFYADSVKGRFTISADNSKNTAYLQMNSLKPEDTAVYYCASSYSSSSGLGDIWGQGTLVTVSS
2.07 nM | 0.000837 s⁻¹ | 1.17e+06 M⁻¹ s⁻¹ | TIGIT-SC77 (Fc fusion, VHH-Fc fusion in assay) VHH: EVQLVESGGGLVQPGGSLRLSCAASGGAFSTVAMGWFRQAPGKEREAVASIWRSGDSTYYADSVKGRFTISADNSKNTAYLQMNSLKPEDTAVYYCASSYSSSSGLGDIWGQGTLVTVSS
≤ 0.00502 nM | ≤ 1e-05 s⁻¹ | 4.71e+06 M⁻¹ s⁻¹ | TIGIT-SC3 (Fc fusion, VHH-Fc fusion in assay) VHH: EVQLVESGGGLVQPGGSLRLSCAASGTFQRINAMGWFRQAPGKEREFVSTINWSGSNTYYADSVKGRFTISADNSKNTAYLQMNSLKPEDTAVYYCASSYSSSSGLGDIWGQGTLVTVSS
≤ 0.0105 nM | ≤ 1e-05 s⁻¹ | 1.31e+06 M⁻¹ s⁻¹ | TIGIT-SC34 (Fc fusion, VHH-Fc fusion in assay) VHH: EVQLVESGGGLVQPGGSLRLSCAASGTTFSPYTMGWFRQAPGKEREFVASINSGSRTNYADSVKGRFTISADNSKNTAYLQMNSLKPEDTAVYYCVRSEIGWGQGTLVTVSS
≤ 0.204 nM | ≤ 1e-05 s⁻¹ | 48900 M⁻¹ s⁻¹ | TIGIT-SC47 (Fc fusion, VHH-Fc fusion in assay) VHH: EVQLVESGGGLVQPGGSLRLSCAASGRALNMYVMGWFRQAPGKERELVAAIDWSGGSALYADSVKGRFTISADNSKNTAYLQMNSLKPEDTAVYYCASGDGYSMDYFDPWGQGTLVTVSS
8.9 nM | 0.00181 s⁻¹ | 203000 M⁻¹ s⁻¹ | TIGIT-SC108 (Fc fusion, VHH-Fc fusion in assay) VHH: EVQLVESGGGLVQPGGSLRLSCAASGNTFSGGFMGWFRQAPGKEREWVASVLRGGYTWYADSVKGRFTISADNSKNTAYLQMNSLKPEDTAVYYCANGGRVWWAFDYWGQGTLVTVSS
9.35 nM | 0.00156 s⁻¹ | 168000 M⁻¹ s⁻¹ | TIGIT-SC197 (Fc fusion, VHH-Fc fusion in assay) VHH: EVQLVESGGGLVQPGGSLRLSCAASGFTFDRSWMGWFRQAPGKEREWVASVLRGGYTWYADSVKGRFTISADNSKNTAYLQMNSLKPEDTAVYYCAREGRTAGWFDPWGQGTLVTVSS
14.4 nM | 0.00124 s⁻¹ | 101000 M⁻¹ s⁻¹ | TIGIT-SC175 (Fc fusion, VHH-Fc fusion in assay) VHH: EVQLVESGGGLVQPGGSLRLSCAASGNTFSGGFMGWFRQAPGKEREWVASVLRGGYTWYADSVKGRFTISADNSKNTAYLQMNSLKPEDTAVYYCTTDALRFLEWPWWGQGTLVTVSS
7.57 nM | 0.000578 s⁻¹ | 86600 M⁻¹ s⁻¹ | TIGIT-SC21 (Fc fusion, VHH-Fc fusion in assay) VHH: EVQLVESGGGLVQPGGSLRLSCAASGNTFSGGFMGWFRQAPGKEREWVASVLRGGYTWYADSVKGRFTISADNSKNTAYLQMNSLKPEDTAVYYCARGGAGSDWFGPWGQGTLVTVSS
59.2 nM | 0.0037 s⁻¹ | 63000 M⁻¹ s⁻¹ | TIGIT-SC61 (Fc fusion, VHH-Fc fusion in assay) VHH: EVQLVESGGGLVQPGGSLRLSCAASGNTFSGGFMGWFRQAPGKEREWVASVLRGGYTWYADSVKGRFTISADNSKNTAYLQMNSLKPEDTAVYYCTRGDTAMATFDYWGQGTLVTVSS
0.328 nM | 0.0002 s⁻¹ | 566000 M⁻¹ s⁻¹ | TIGIT-SC10 (Fc fusion, VHH-Fc fusion in assay) VHH: EVQLVESGGGLVQPGGSLRLSCAASGNTFSGGFMGWFRQAPGKEREWVASVLRGGYTWYADSVKGRFTISADNSKNTAYLQMNSLKPEDTAVYYCASDPWGTRYFDHWGQGTLVTVSS
≤ 0.222 nM | ≤ 1e-05 s⁻¹ | 45000 M⁻¹ s⁻¹ | TIGIT-SC170 (Fc fusion, VHH-Fc fusion in assay) VHH: EVQLVESGGGLVQPGGSLRLSCAASGHTFSPSWMGWFRQAPGKEREWVASVLRGGYTWYADSVKGRFTISADNSKNTAYLQMNSLKPEDTAVYYCTTELRWELQQPDYWGQGTLVTVSS
0.505 nM | 0.000237 s⁻¹ | 469000 M⁻¹ s⁻¹ | TIGIT-SC38 (Fc fusion, VHH-Fc fusion in assay) VHH: EVQLVESGGGLVQPGGSLRLSCAASGFTFSEYPMGWFRQAPGKEREFVAVVNWNGDSTYYADSVKGRFTISADNSKNTAYLQMNSLKPEDTAVYYCARGSDWYRYWGQGTLVTVSS
